Measurements from article PMC4476070.
Where two headings read alike, the source gives them in different places.

Key:
SUMO-DMRT1 67-136 [1] = molecular target: T1, SUMO-DMRT1 67-136 (Homo sapiens, UniProt Q9Y5R6 67-136); test: EMSA
DMRT1 full-length [2] = molecular target: T2, DMRT1 full-length (Homo sapiens, UniProt Q9Y5R6 1-373); test: EMSA
DMRT1 full-length [3] = molecular target: T2, DMRT1 full-length; test: EMSA; remark: listed apart in the source
DMRT1 full-length [4] = molecular target: T2, DMRT1 full-length; test: EMSA; remark: listed apart in the source
[5] = molecular target: T3, DMRT1 full-length;DMRT1 R111G (Homo sapiens;Homo sapiens, UniProt Q9Y5R6;Q9Y5R6 1-373;1-373, |R111G); test: EMSA
T3 sequence (Q9Y5R6 whole entry, stated change not applied, chain 1 of 2): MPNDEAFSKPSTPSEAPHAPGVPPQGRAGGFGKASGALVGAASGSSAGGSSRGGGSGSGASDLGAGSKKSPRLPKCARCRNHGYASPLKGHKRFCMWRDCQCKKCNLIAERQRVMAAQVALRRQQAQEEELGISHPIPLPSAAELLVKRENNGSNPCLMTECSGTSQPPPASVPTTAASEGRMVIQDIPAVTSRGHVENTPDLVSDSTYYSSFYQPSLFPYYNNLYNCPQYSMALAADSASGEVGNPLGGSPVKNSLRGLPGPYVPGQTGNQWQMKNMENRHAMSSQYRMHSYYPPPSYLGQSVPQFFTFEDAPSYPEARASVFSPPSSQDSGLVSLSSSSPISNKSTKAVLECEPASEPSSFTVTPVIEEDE
T3 sequence (Q9Y5R6 whole entry R111G, chain 2 of 2): as the sequence (Q9Y5R6 whole entry, stated change not applied, chain 1 of 2) above, with R111G counted along it

SUMO-DMRT1 67-136 [6] = molecular target: T1, SUMO-DMRT1 67-136; test: EMSA; remark: listed apart in the source
[7] = molecular target: T3, DMRT1 full-length;DMRT1 R111G; test: EMSA; remark: listed apart in the source
DMRT1 R123Q = DMRT1 R123Q (Homo sapiens, UniProt Q9Y5R6 1-373, R123Q); test: EMSA
Chain of DMRT1 R123Q (Q9Y5R6 whole entry R123Q): as the sequence (Q9Y5R6 whole entry, stated change not applied, chain 1 of 2) above, with R123Q counted along it

DMRT1 R123A = DMRT1 R123A (Homo sapiens, UniProt Q9Y5R6 1-373, R123A); test: EMSA
Chain of DMRT1 R123A (Q9Y5R6 whole entry R123A): as the sequence (Q9Y5R6 whole entry, stated change not applied, chain 1 of 2) above, with R123A counted along it

DMRT1 67-136 = DMRT1 67-136 (Homo sapiens, UniProt Q9Y5R6 67-136); test: X-ray crystallography
Chain of DMRT1 67-136 (Q9Y5R6 67-136): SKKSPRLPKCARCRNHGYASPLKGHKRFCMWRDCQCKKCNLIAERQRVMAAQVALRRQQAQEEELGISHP

T2 sequence (Q9Y5R6 whole entry): as the sequence (Q9Y5R6 whole entry, stated change not applied, chain 1 of 2) above
T1 sequence (Q9Y5R6 67-136): as the sequence (Q9Y5R6 67-136) above

B1: Site 4 (27 bp) (dsDNA)
DNA 1: TTGCTATGATACATTGTATCTTGCTGG
DNA 2: CCAGCAAGATACAATGTATCATAGCAA
B1: binds (SUMO-DMRT1 67-136 [1]).

B2: Site 3 (27 bp) (dsDNA)
DNA 1: GAGATTTGATACATTATTAATTTATGG
DNA 2: CCATAAATTAATAATGTATCAAATCTC
B2: binds (DMRT1 full-length [2]).

B3: Site 2 (27 bp) (dsDNA)
DNA 1: GAGATTTGATACATTGTTACTTTATGG
DNA 2: CCATAAAGTAACAATGTATCAAATCTC
B3: binds (DMRT1 full-length [3]).

B4: Sox9 site (dsDNA)
DNA 1: GTGGCTGGGCACCCTGCAGAGACAATGTTTCCAGCTGCAGGTCAGGTCT
DNA 2: AGACCTGACCTGCAGCTGGAAACATTGTCTCTGCAGGGTGCCCAGCCAC
B4: binds (DMRT1 full-length [4]); binds [5].

B5: Site 1 (27 bp) (dsDNA)
DNA 1: GAGATTTGATACATTGTTGCTCGATGG
DNA 2: CCATCGAGCAACAATGTATCAAATCTC
B5: binds (DMRT1 full-length [4]); binds (SUMO-DMRT1 67-136 [6]); binds [7].

B6: Site 1 (49 bp) (dsDNA)
DNA 1: GTGGCTGGGCAGAGATTTGATACATTGTTGCTCGATGGAGGTCAGGTCT
DNA 2: AGACCTGACCTCCATCGAGCAACAATGTATCAAATCTCTGCCCAGCCAC
B6: no binding (DMRT1 R123Q); no binding (DMRT1 R123A).

B7: Site 1 crystal 25-mer (dsDNA)
DNA 1: CGAGATTTGATACATTGTTGCTCGA
DNA 2: TCGAGCAACAATGTATCAAATCTCG
B7: binds (DMRT1 67-136).
